Sequences and labels used below:
T1: human CD70 expressed on parental (WT) Jurkat cells (human, UniProt P32970 1-193)
T1 sequence: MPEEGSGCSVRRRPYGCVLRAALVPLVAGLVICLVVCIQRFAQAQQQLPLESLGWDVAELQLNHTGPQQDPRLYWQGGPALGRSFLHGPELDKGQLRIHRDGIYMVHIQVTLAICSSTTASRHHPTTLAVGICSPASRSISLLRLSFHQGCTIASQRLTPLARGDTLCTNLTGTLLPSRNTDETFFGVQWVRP

T2: recombinant biotinylated human CD70 protein (human, UniProt P32970 39-193, biotinylated (site not stated))
T2 construct: also called recombinant biotinylated hCD70 protein
T2 sequence: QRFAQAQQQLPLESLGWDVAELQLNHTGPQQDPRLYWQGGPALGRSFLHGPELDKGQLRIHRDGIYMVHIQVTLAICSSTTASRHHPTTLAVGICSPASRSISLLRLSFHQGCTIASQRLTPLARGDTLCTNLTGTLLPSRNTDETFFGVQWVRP

T3: recombinant biotinylated human CD70 protein (human) (UniProt P32970)
T3 sequence (chain, biotinylated (site not stated)): T2 sequence

T4: recombinant human CD70 (AviTag, polyhistidine tag and chicken tenascin trimerization domain fused to the … (chicken; human, UniProt P10039 110-139, limits assumed)
T4 construct: domain: trimerization domain; Expressed in Expi293, purified by IMAC and SEC; Copies 3 is inferred from the trimerization domain; not shown: AviTag; polyhistidine tag
T4 sequence: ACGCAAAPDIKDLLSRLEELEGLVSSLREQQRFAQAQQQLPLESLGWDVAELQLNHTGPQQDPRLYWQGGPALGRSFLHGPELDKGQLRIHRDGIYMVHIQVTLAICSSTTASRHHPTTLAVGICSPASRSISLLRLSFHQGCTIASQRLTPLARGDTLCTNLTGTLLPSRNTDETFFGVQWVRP

B1: 45F11 CD70-specific CAR (other)
chain: QVQLRGSGPGLVKPSETLSLTCTVSDDSISVYYWSWIRQPAGKGLEWIGRVYSSGNINYNPSLESRVTMSVDTSKSRFSLNLSSVTAADTAVYYCARGLDAFDIWGQGTMVTVSSGGGGSGGGGSGGGGSGGGGSEIVMTQSPATLSMSLGERATLSCRASQSVSSSLAWYQQKPGQAPRLLIYGASTRATGIPARFGGSGSGTEFTLTISSLQSEDFAVYYCQQYINWPHFGGGTKVEIKTTTPAPRPPTPAPTIASQPLSLRPEACRPAAGGAVHTRGLDFACDIYIWAPLAGTCGVLLLSLVITLYCKRGRKKLLYIFKQPFMRPVQTTQEEDGCSCRFPEEEEGGCELRVKFSRSADAPAYQQGQNQLYNELNLGRREEYDVLDKRRGRDPEMGGKPRRKNPQEGLYNELQKDKMAEAYSEIGMKGERRRGKGHDGLYQGLSTATKDTYDALHMQALPPR
B2: 72C2 CD70-specific CAR (other)
chain: QVQLVQSGAEVKKPGSSVKVSCEASGGTFITYAISWVRQAPGQGLEWMGGIIPFFGTANYAQKFQGRVTITADKSTSTASMELRSLRSEDTAMYYCAQWELFFFDFWGQGTPVTVSSGGGGSGGGGSGGGGSGGGGSEIVMTQSPDTLSVSPGERAILSCRASQSVSSNLAWYQQKPGQAPRLLIYSASTRASGIPARFSGSGSGTEFTLSISSLQSEDFAVYYCQQYDNWPPLTFGGGTKVEIKTTTPAPRPPTPAPTIASQPLSLRPEACRPAAGGAVHTRGLDFACDIYIWAPLAGTCGVLLLSLVITLYCKRGRKKLLYIFKQPFMRPVQTTQEEDGCSCRFPEEEEGGCELRVKFSRSADAPAYQQGQNQLYNELNLGRREEYDVLDKRRGRDPEMGGKPRRKNPQEGLYNELQKDKMAEAYSEIGMKGERRRGKGHDGLYQGLSTATKDTYDALHMQALPPR
B3: 42C3 CD70-specific CAR (other)
chain: EVQLVESGGGLVQPGGSLRLSCAASGFTFRNSWMSWVRQAPGKGLEWVANIKRDGSEKYYVDSVKGRFTISRDNAKNSLYLQMNSLRAEDTAVYYCARDQTGSFDYWGQGTLVTVSSGGGGSGGGGSGGGGSGGGGSDVVMTQSPLSLPVTLGQPASISCRSSQSLVYSDENTYLNWFQQRPGQSLRRLIYQVSNRDSGVPDRFSGSGSGTDFTLKISRVEAEDVGVYFCMQGTYWPPTFGGGTKVEIKTTTPAPRPPTPAPTIASQPLSLRPEACRPAAGGAVHTRGLDFACDIYIWAPLAGTCGVLLLSLVITLYCKRGRKKLLYIFKQPFMRPVQTTQEEDGCSCRFPEEEEGGCELRVKFSRSADAPAYQQGQNQLYNELNLGRREEYDVLDKRRGRDPEMGGKPRRKNPQEGLYNELQKDKMAEAYSEIGMKGERRRGKGHDGLYQGLSTATKDTYDALHMQALPPR
B4: 64F9 CD70-specific CAR (other)
chain: EVQLLESGGGLVQPGESLRLSCEVSGFTFTSYAMSWVRQVPGKGLEWVSIISGVAFTTYYADSVKGRFTISRDHSKNTLYLQMNGLRAEDTAVYYCVKVDGEVYWGQGTLVTVSSGGGGSGGGGSGGGGSGGGGSDIQMTQSPSSLSASVGDRVTITCQASQDISNYLNWYQQKPGKAPKILIYGASNLETGVPSRFSGSGSGTDFTFAISSLQPEDVATYYCQQYDNFPITFGQGTRLEIKTTTPAPRPPTPAPTIASQPLSLRPEACRPAAGGAVHTRGLDFACDIYIWAPLAGTCGVLLLSLVITLYCKRGRKKLLYIFKQPFMRPVQTTQEEDGCSCRFPEEEEGGCELRVKFSRSADAPAYQQGQNQLYNELNLGRREEYDVLDKRRGRDPEMGGKPRRKNPQEGLYNELQKDKMAEAYSEIGMKGERRRGKGHDGLYQGLSTATKDTYDALHMQALPPR
notes: Chimeric antigen receptor on transduced Jurkat cells; the signal peptide is left out
B5: 4F11 CD70-specific CAR (other)
chain: QVTLKESGPVLVKPTETLTLTCTVSGFSLSNARMGVTWIRQPPGKALEWLAHIFSNDEKSYSTSLKSRLTISKDTSKTQVVLTMTNMDPVDTATYYCARIRDYYDISSYYDYWGQGTLVSVSSGGGGSGGGGSGGGGSGGGGSDIQMTQSPSAMSASVGDRVTITCRASQDISNYLAWFQQKPGKVPKRLIYAASSLQSGVPSRFSGSGSGTEFTLTISSLLPEDFATYYCLQLNSFPFTFGGGTKVEINTTTPAPRPPTPAPTIASQPLSLRPEACRPAAGGAVHTRGLDFACDIYIWAPLAGTCGVLLLSLVITLYCKRGRKKLLYIFKQPFMRPVQTTQEEDGCSCRFPEEEEGGCELRVKFSRSADAPAYQQGQNQLYNELNLGRREEYDVLDKRRGRDPEMGGKPRRKNPQEGLYNELQKDKMAEAYSEIGMKGERRRGKGHDGLYQGLSTATKDTYDALHMQALPPR
notes: as for B4
B6: P07D03 anti-CD70 scFv-Fc fusion (Fc fusion)
chain: EVQLVQSGAEVKKPGESLKISCKGSGYRFTSYWIGWVRQMPGKGLEWMGSIYPDDSDTRYSPSFQGQVTISADKSISTAYLQWSSLKASDTAMYYCASSTVDYPGYSYFDYWGQGTLVTVSSGGGGSGGGGSGGGGSGGGGSELQSVLTQPPSASGTPGQRVTISCSGSRSNIGSNYVYWYQQLPGTAPKLLIYRNNQRPSGVPDRFSGSKSGTSASLAISGLRSEDEADYYCASWDGSLSAVVFGTGTKLTVL
notes: scFv-Fc expressed in Expi293; not shown: part of the hinge and Fc from a modified human IgG2
B7: P02B10 anti-CD70 scFv-Fc fusion (Fc fusion)
chain: EVQLLESGGGLVQPGGSLRLSCAASGFAFSNYAMSWVRQAPGKGLEWVSAIRGGGGSTYYADSVKGRFTISRDNSKNTLYLQMNSLRAEDTAVYYCARDFISGTWYPDYWGQGTLVTVSSGGGGSGGGGSGGGGSGGGGSELQSVLTQPPSASGTPGQRVTISCSGSSSNIGSNYVYWYQQLPGTAPKLLIYRNNQRPSGVPDRFSGSKSGTSASLAISGLRSEDEADYYCAAWDDSLSGVVFGGGTKLTVL
notes: as for B6
B8: P08A02 anti-CD70 scFv-Fc fusion (Fc fusion)
chain: EVQLVQSGAEVKKPGESLKISCKGSGYTFTNYWIAWVRQMPGKGLEWMGIIYPDGSDTRYSPSFQGQVTISADKSISTAYLQWSSLKASDTAMYYCARDITSWYYGEPAFDIWGQGTLVTVSSGGGGSGGGGSGGGGSGGGGSELQSVLTQPPSASGTPGQRVTISCSGSSSNIGSNYVYWYQQLPGTAPKLLIYRNNQRPSGVPDRFSGSKSGTSASLAISGLRSEDEADYYCATWDDSLGSPVFGTGTKLTVL
notes: as for B6

The first assay has as its target T1, human CD70 expressed on parental (WT) …. The assay is described as follows: cell-based or functional assay.
In the case of B1, the “Activation ratio (WT/KO)” value is 6.67. B2: the “Activation ratio (WT/KO)” value amounted to 6.18. On the same count and under the same terms, the value for B3 was 5.25. Take B4: the “Activation ratio (WT/KO)” value was determined as 3.89. For the molecule B5, the “Activation ratio (WT/KO)” value turned out to be 11.9.

In a further assay the target is T2, recombinant biotinylated human CD70 …. The assay is described as follows: flow cytometry: CAR-transduced Jurkat cells incubated with recombinant biotinylated human CD70, streptavidin-PE; percent of cells binding. On the procedure:
On Day 5, transduced cells were stained with human anti-CD69 antibody conjugated to PE-Cy7 and acquired on a flow cytometer to obtain percentage of CD69+ population for each CAR. […] Activation ratios (WT activation/KO activation) and protein binding were used to rank CARs.
Activation ratio and protein binding of hybridoma CARs were determined in the Jurkat screen and used for in vitro characterization of CARs. Activation ratio was determined by calculating the ratio of the percentage of CD69 expression on WT Jurkat cells transduced with CD70 CAR (WT) to that on CD70 knockout Jurkat cells transduced with CD70 CAR (KO). A higher activation ratio indicates target-dependent activation. […] Protein binding values indicate the percentage of CD3+ CAR T cells that bind to human CD70 protein.
(In general: Flow cytometry measures light scatter and fluorescence of single cells or particles in a stream.)
With B4, the “Protein binding (%)” value was 6.24%. For the molecule B5, the “Protein binding (%)” value came to 47.1%.

Another assay concerns the target T3, recombinant biotinylated human CD70 protein (human). The assay is described as above.
Take B1: the Protein binding (%) was determined as 1.29%. As for B2, the Protein binding (%) was found to be 0.09%. On to B3, for which the Protein binding (%) was determined as 1.48%.

The target in a further assay is T4, recombinant human CD70 (AviTag, …). Put plainly: SPR (Biacore 8K, 37 C): CD70 captured via anti-AviTag antibody on C1 chip, scFv-Fc as analyte; 1:1 steady state affinity fit (SS KD). On the procedure: The antibody binding kinetics were determined by surface plasmon resonance (Biacore 8K, GE Healthcare Bio-Sciences, Pittsburgh Pa.) at 37° C. in HBS-T+ (0.01 M HEPES pH 7.4, 0.15 M NaCl, 0.05% v/v Tween20, 1 mg/mL BSA). Recombinant human CD70 diluted in HBS-T+ was captured on a C1 chip immobilized with an anti-AviTag™ antibody. Purified anti-CD70 scFv-Fc fusions were serially diluted into HBS-T+, injected at 30 uL/min for 2-4 min, dissociation monitored for 10 min then the surface regenerated with 75 mM phosphoric acid between injections. Buffer cycles were collected for each anti-CD70 scFv-Fc fusion for double-referencing purposes (double-referencing as described in Myszka, D. G. Improving biosensor analysis. J. Mol. Recognit. 12, 279-284 (1999)). Kinetic association rates (kₒₙ) and dissociation rates (koff) were obtained simultaneously by fitting the double-referenced sensorgrams globally to a 1:1 Langmuir with mass transport model using Biacore 8K Evaluation Software (GE Healthcare Bio-Sciences, Pittsburgh Pa.) then used to calculate an equilibrium dissociation constant (KD) from the kinetic rate constants (KD=koff/kₒₙ). The data was fit to a 1:1 steady state affinity model using Biacore 8K Evaluation Software to determine a steady state equilibrium dissociation constant (SS KD) as needed.
As for B6, the Kd amounted to 1070 nM. On to B7, for which the equilibrium dissociation constant (Kd) came out at 355 nM. The same measure, in the same setting: the value for B8 was 1200 nM.

One may read the Kd as the equilibrium constant for the complex coming apart.

The values are drawn from US20190233528A1 (published 2019).
